From the supplement of paper PMC12764529 come the findings set out here.

± gives the half width of the 95% confidence interval.

Data set [1] can be described thus: folding stability dG unfold (combined trypsin and chymotrypsin); higher = more stable. How it is done: (§1)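 Folding stability of de novo designed mini-proteins (<80 aa, no Cys; designed by TrROS, TrMRF, ProteinMPNN and the joint model) was measured by cDNA display proteolysis with trypsin and chymotrypsin. Each protease was used at 11 concentrations in a threefold dilution series plus a no-protease condition. K50 was inferred by Bayesian fitting of sequencing counts, and dG unfold was derived against a sequence-predicted unfolded-state K50 (Tsuboyama et al. method). Sequences shown include variable-length N-terminal GS-type padding (SAGGSAGG...) inside a display construct carrying a PA tag. Rows were kept only if the AF2 dimer inter-PAE was >15, to exclude likely homo-oligomers.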

Data set [2] in a line: folding stability dG unfold from chymotrypsin proteolysis; higher = more stable. On the procedure: as §1

As to “SAGGGSMVIPVSPEEKEAALKLLEALPSKDVKVTVTDPATGTTTTLTPEEAKKLIEATDTPLVLTLSSAGGS [r16_263_JUSTAS]”, the “folding stability dG unfold” value in data set [1] turned out to be 3.42 ± 0.16 kcal/mol; in data set [2], 2.92 ± 0.08 kcal/mol.
“SAGGISVEIYPPNGKKVELEGDTIPELMDKFPPGGNYVIKIEQPHVNPGNGKKQPMEMEFRVPPDDFSAGGS [r16_806_TrROS]”: the “folding stability dG unfold” value in data set [1] is -0.697 ± 0.33 kcal/mol; in data set [2] it was -0.202 ± 0.23 kcal/mol.
For the sequence “SAGGKARITRIEAEPDPLRVEVEVELPDGRKVRAVAVVPPGEGGVARVRTAVDFGEGVVPAADIEIPPSAGG [r13_728_TrMRF]”, the figures for the “folding stability dG unfold” value in data set [1] and in data set [2] were 0.236 ± 0.052 kcal/mol and 0.704 ± 0.016 kcal/mol, respectively.
As for “SAGGKKVIIPFKSPEQVKDWLENAPPGHDKVEIFSPETGYMAEFEVDPKENKIKEIKWERFDPDDGMFSAGG [r13_945_TrROS]”, the “folding stability dG unfold” value was -0.372 ± 0.46 kcal/mol in data set [1] and 0.0373 ± 0.28 kcal/mol in data set [2].
Consider “SAGGMGVRVEEKVLATSESSTPDGTPVTFTETETKITLPPGTVVTVKKLLETGGGGRKVLEETTSPLASAGG [r13_898_JUSTAS]”, for which the “folding stability dG unfold” value in data set [1] is -0.295 ± 0.14 kcal/mol; in data set [2], 0.092 ± 0.039 kcal/mol.
Consider “SAGGMITLEEPELDPSRPVTRVKVLTEIPAPGGVPVVVETTYTDTRAPGDPSVTVVTSTTTVVPGAAGSAGG [r13_131_JUSTAS]”, for which the “folding stability dG unfold” value in data set [1] was -0.834 ± 0.27 kcal/mol; in data set [2] it was -0.0242 ± 0.055 kcal/mol.
In the same order, the values of “SAGGMKIEKTPVKIEKEGEDTVIEYKETEYLPDGTVKEYEGILRIPKNTGKITTLEKKLLSTEPILGSAGGS [r16_729_JUSTAS]” are < -1 kcal/mol and -0.377 ± 0.3 kcal/mol.
Regarding “SAGGMLITEEDLAALLAAVPPERPDAVVTLTVGRLQRILPGSTGENEPIPSSVEPSVVTLPVTVPPASAGGS [r16_708_JUSTAS]”, the “folding stability dG unfold” value in data set [1] was < -1 kcal/mol; in data set [2], -0.833 ± 0.24 kcal/mol.
With “SAGGMLSRESTDPGPGRRTLTREEPLPDGTVPVTVTTESPDPSVTTVETRLVFPGPAVETPTRTAAPSAGGS [r16_684_JUSTAS]”, the “folding stability dG unfold” value stood at 0.281 ± 0.052 kcal/mol in data set [1] and 0.78 ± 0.038 kcal/mol in data set [2].
On to “SAGGMTIVSSGPSIEQALQEAAEAGGDATVIYKEPESNTIITLDVKYDPAPRTITVLSETETPVPPLLSAGG [r13_309_JUSTAS]”, for which the “folding stability dG unfold” value is 0.17 ± 0.1 kcal/mol in data set [1] and 0.758 ± 0.079 kcal/mol in data set [2].
For “SAGGMTLDQLKENIKSVEVYPHPDGGYRMRVQIPQPNPDGKPKPREFNIPMPPNDPNMSADNVIDQILSAGG [r13_319_TrROS]”, in that order: < -1 kcal/mol and -0.353 ± 0.27 kcal/mol.
In the case of “SAGGMTTTTTLEVAPDTPYEAALAEIEAALAAAAAGRPVASSPVAARPGGARTLPLVVTDGAVTALGSAGGS [r8_7_JUSTAS]”, the “folding stability dG unfold” value is 0.35 ± 0.07 kcal/mol in data set [1] and 0.954 ± 0.041 kcal/mol in data set [2].
As for “SAGGMTTTVTVTEDPATGTLTVPITIPRLDAEGNPTTEVLTVTLPASPEAEAAIAALAAALGIPAAASAGGS [r8_381_JUSTAS]”, the “folding stability dG unfold” value in data set [1] amounted to 0.369 ± 0.1 kcal/mol; in data set [2] it was 0.943 ± 0.067 kcal/mol.
Take “SAGGMTVTLRLTDPAGEEYTVTVTKTEGKSTATVYGPGGELVETRDFSSAEEAIAYLRAQGYTVEVIESAGG [r13_315_JUSTAS]”: the “folding stability dG unfold” value in data set [1] came to 5.34 ± 0.081 kcal/mol; in data set [2] it was 5.323 ± 0.049 kcal/mol.
For “SAGGMTVVSTETDTATGRPVRTVRLPPEASLRELAALDGWVRLVDPAPDREVELPAEDPEAVVEALLASAGG [r13_604_JUSTAS]”, in that order: -0.504 ± 0.22 kcal/mol and 0.0196 ± 0.13 kcal/mol.
On to “SAGGNLRIRIEMENKDGNKRKIPIPEEEFNRIKESLKNGKPITPEPASWISDYARRNGYDVKIVDIYSAGGS [r8_159_TrROS]”, for which the “folding stability dG unfold” value in data set [1] was -0.35 ± 0.33 kcal/mol; in data set [2] it was -0.101 ± 0.36 kcal/mol.
For “SAGGPNFMFRVKMPHPRPKKDPEDGKEKWRPQRHEHTVPFPADDPEQALDELADNMPPNNFKITDITSAGGS [r16_459_TrROS]”, in that order: -0.0582 ± 0.18 kcal/mol and 0.45 ± 0.22 kcal/mol.
With “SAGGSAEIEPVSSEVDPNSDRTVTTNRIPGSGKTRTVTYDSSNPGVTTVTTYAPGGKPLSTTTLPTSAGGSA [r15_974_JUSTAS]”, the “folding stability dG unfold” value was < -1 kcal/mol in data set [1] and -0.474 ± 0.28 kcal/mol in data set [2].
On to “SAGGSAGGALTPTDEVTLTLPDGTVRPGRVEVLPDNVVRVRLEGSEVLLTRDPEGDEVTVERVASAGGSAGG [r6_68_JUSTAS]”, for which the “folding stability dG unfold” value in data set [1] stood at 0.503 ± 0.047 kcal/mol; in data set [2], 0.964 ± 0.011 kcal/mol.
As for “SAGGSAGGAPVYVTTDTRERADPNGSTVRTSLVRDPNGPATYRVTETVPPDGSVASTTTAVPGASAGGSAGG [r6_839_JUSTAS]”, the “folding stability dG unfold” value was < -1 kcal/mol in data set [1] and -0.532 ± 0.23 kcal/mol in data set [2].
With “SAGGSAGGDIKIEDIEYEQNPGGWQKVEVRLPGNGRPIEVPVPPGMPYEQAKDWAKDWAEELLKSAGGSAGG [r6_628_TrROS]”, the “folding stability dG unfold” value was 0.511 ± 0.22 kcal/mol in data set [1] and 0.724 ± 0.13 kcal/mol in data set [2].
On to “SAGGSAGGDKVTIESFHPENWYFRIRYPGNGKPISFPIKSVDELLDKIEPSGLPVEIEWMPPEESAGGSAGG [r6_33_TrROS]”, for which the “folding stability dG unfold” value in data set [1] was -0.0248 ± 0.32 kcal/mol; in data set [2], 0.233 ± 0.26 kcal/mol.
Take “SAGGSAGGGASTRRTITVPYEDPEEAFEKVKEEVKAETGKPTEVTLTEIDPNNPGVITVEVTVSSAGGSAGG [r6_211_JUSTAS]”: the “folding stability dG unfold” value in data set [1] came out at 0.351 ± 0.07 kcal/mol; in data set [2], 0.938 ± 0.019 kcal/mol.
With “SAGGSAGGKEVKVTLEYDEETGTLTLTVETPDGYVFKLEITFEKDEDGNLKVTIKLEVIPLEDLSAGGSAGG [r6_537_TrROS_Hall]”, the results for the “folding stability dG unfold” value in data set [1] and in data set [2] were 4.39 ± 0.61 kcal/mol and 4.45 ± 0.21 kcal/mol, respectively.
For the sequence “SAGGSAGGKTKVKGTLIGPNGPPVEVEGEALLPDGREYDVHIDAVLLPDPEGEPTVVVKVEVKPSAGGSAGG [r6_334_TrMRF]”, the entries for the “folding stability dG unfold” value in data set [1] and in data set [2] were -0.127 ± 0.23 kcal/mol and 0.168 ± 0.051 kcal/mol, respectively.
For “SAGGSAGGMFVPEGKTVTVKLPGNETVTVKVKAGNSRPFDSLEEIEAFAAQPGFDIEVSSSPAKSAGGSAGG [r6_433_JUSTAS]”, the “folding stability dG unfold” value in data set [1] is -0.722 ± 0.21 kcal/mol; in data set [2], 0.0627 ± 0.077 kcal/mol.
As for “SAGGSAGGMLVPLDDTRVVPLPDGSYAVLVRPADGSELLREFDSLEDAVEWAEATGAGVADLPASAGGSAGG [r6_84_TrMRF]”, the “folding stability dG unfold” value was -0.553 ± 0.34 kcal/mol in data set [1] and 0.0582 ± 0.18 kcal/mol in data set [2].
In the case of “SAGGSAGGMPVVVETRPDPETGNEIVRITVPKPNYTLVLRRDSQGKETLLAEIGPYTPDDPGLLSAGGSAGG [r6_149_JUSTAS]”, the figures for the “folding stability dG unfold” value in data set [1] and in data set [2] were -0.00962 ± 0.23 kcal/mol and 0.474 ± 0.18 kcal/mol, respectively.
With “SAGGSAGGMREIEHEIPNPNGRNIKIKIEYDPDQGWHPVEIENPGNGKKKTYPFDSADEVLDQLSAGGSAGG [r6_465_TrROS]”, the entries for the “folding stability dG unfold” value in data set [1] and in data set [2] were 0.0475 ± 0.17 kcal/mol and 0.598 ± 0.031 kcal/mol, respectively.
As to “SAGGSAGGMTIKELLKEGVPFKIEMYGPNNGEPREFKIPPGESIDDILENMPFPPGMQIRIEPKSAGGSAGG [r6_232_TrROS]”, the “folding stability dG unfold” value in data set [1] is -0.142 ± 0.42 kcal/mol; in data set [2], 0.121 ± 0.31 kcal/mol.
Turning to “SAGGSAGGMVITFTAPDGTPLGTVEVELPPNNPEAEEEARELAEALRAELEEAGRPVAATVEPASAGGSAGG [r6_884_JUSTAS]”, the “folding stability dG unfold” value in data set [1] was 0.309 ± 0.14 kcal/mol; in data set [2], 0.903 ± 0.088 kcal/mol.
For “SAGGSAGGNTIELPLPNGMELEIPVQKNPEGYYQVNIERYDPDDGKKKEIPFTMPAEDIKDFLKSAGGSAGG [r6_859_TrROS]”, the “folding stability dG unfold” value in data set [1] was -0.785 ± 0.36 kcal/mol; in data set [2], -0.205 ± 0.29 kcal/mol.
With “SAGGSAGGPPPVRVTIETETTTTFPNGTPRTTTNTVVLDAPEEEAEAAVAAIPASVVKSVARTGSAGGSAGG [r6_985_JUSTAS]”, the “folding stability dG unfold” value is -0.187 ± 0.24 kcal/mol in data set [1] and 0.486 ± 0.057 kcal/mol in data set [2].
For the sequence “SAGGSAGGSAAPDLVTETETRTHPETGLVITRERVTLPSTGTTEERTVVTDPETGVTTTEKSSAGGSAGGSA [r18_383_JUSTAS]”, the “folding stability dG unfold” value in data set [1] was -0.139 ± 0.13 kcal/mol; in data set [2], 0.294 ± 0.038 kcal/mol.
With “SAGGSAGGSAGAYSATPVEERRLPDGSTLVRERVTDPATGTPALREVLVTDEGVEERLLPSAGGSAGGSAGG [r11_991_JUSTAS]”, the “folding stability dG unfold” value is -0.458 ± 0.1 kcal/mol in data set [1] and 0.415 ± 0.098 kcal/mol in data set [2].
“SAGGSAGGSAGEAASSLKLPPVTLTTPPVPVELPPGLTVESVEPVRTPSGETILVVNLVRSAGGSAGGSAGG [r11_388_JUSTAS]”: the “folding stability dG unfold” value in data set [1] is -0.349 ± 0.19 kcal/mol; in data set [2] it was 0.279 ± 0.13 kcal/mol.
As to “SAGGSAGGSAGGDEILELERIPETGELVLRRITPDGEGFRIEEEVVPVGPELAEALPEGSAGGSAGGSAGGS [r10_291_TrMRF]”, the “folding stability dG unfold” value in data set [1] was < -1 kcal/mol; in data set [2], -0.279 ± 0.34 kcal/mol.
For the sequence “SAGGSAGGSAGGDPDLPVYSVSPTTIPAPPGQDSPTPGPNSVTVDANGTATVTETSVSLVSAGGSAGGSAGG [r7_556_JUSTAS]”, the “folding stability dG unfold” value in data set [1] is < -1 kcal/mol; in data set [2] it was -0.6 ± 0.2 kcal/mol.
As to “SAGGSAGGSAGGDVNSPNIPPVLTVEPVEVLDPGGGGLRRRVVYVAPGGIVLETEERPESAGGSAGGSAGGS [r10_261_JUSTAS]”, the “folding stability dG unfold” value in data set [1] was 0.156 ± 0.16 kcal/mol; in data set [2] it was 0.702 ± 0.12 kcal/mol.
As to “SAGGSAGGSAGGGMEFSTVTVKRTLKTLGKTEVTTVPVVNPVPPPPPLGPENIARSRGVLSAGGSAGGSAGG [r7_79_JUSTAS]”, the “folding stability dG unfold” value is < -1 kcal/mol in data set [1] and -0.0494 ± 0.21 kcal/mol in data set [2].
For “SAGGSAGGSAGGGMKLRLVTYSITTTNKVFPSLEEALAAPPDETDGVDEIISSSLKPLLSAGGSAGGSAGGS [r10_729_JUSTAS]”, in that order: -0.326 ± 0.15 kcal/mol and 0.21 ± 0.17 kcal/mol.
Regarding “SAGGSAGGSAGGGMTTTYTTETIEAPDGTVVIKKTTTYDYGNGSLTKPTIYNPDGTPIGSAGGSAGGSAGGS [r10_1056_JUSTAS]”, the “folding stability dG unfold” value in data set [1] was -0.188 ± 0.12 kcal/mol; in data set [2] it was 0.452 ± 0.14 kcal/mol.
